Reference: patent CN108101990A (UNIV ZHEJIANG, dated 2018)

Target: T1, 人Tim-3胞外区 (human, UniProt Q8TDQ0 22-202)
T1 construct: extracellular domain; also called T细胞免疫球蛋白黏蛋白分子3
T1 sequence (looked up): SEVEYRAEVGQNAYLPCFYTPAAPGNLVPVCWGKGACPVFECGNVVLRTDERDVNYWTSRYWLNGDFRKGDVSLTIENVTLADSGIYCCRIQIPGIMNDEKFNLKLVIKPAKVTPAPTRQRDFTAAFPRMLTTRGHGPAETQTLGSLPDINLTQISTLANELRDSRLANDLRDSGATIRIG
Assay: hybridoma screening, indirect ELISA

binding result: binds
B1: 抗人Tim-3单克隆抗体CDT1 (antibody, V domains shown)
VH: VKLQESGGGLVQPGGSLRLSCATSGFTFTDYYMSWVRQPPGKALEWLGFIRNKANGYTTEYSASVKGRFTISRDYSQSILYLQMNTLTAEDSATYFCARDLDYWGQGTTVTVSS
VL: NIMMTQSPSSLAVSAGEKVTMSCKSSQSVLYSSNQKNFLAWYQQKPGQSPELLIYWASTRVSGVPDRFTGSGSGTDFTLTISNVQAEDLAVYYCHQYLSLRTFGGGTKLEI
notes: also called CDT1抗体
